Patent CN113980129A (DONGDA BIOTECHNOLOGY SUZHOU CO LTD, dated 2022)
Residue numbers refer to the chain shown, from its start. In names and notes the source's numbering stands.

T1: 重组人IL-11 (recombinant human interleukin-11) (human, UniProt P20809 22-199)
T1 construct: Called recombinant human IL-11 as immunogen; the assays say only IL-11; also called IL-11抗原; IL-11-Biotin
T1 sequence (looked up): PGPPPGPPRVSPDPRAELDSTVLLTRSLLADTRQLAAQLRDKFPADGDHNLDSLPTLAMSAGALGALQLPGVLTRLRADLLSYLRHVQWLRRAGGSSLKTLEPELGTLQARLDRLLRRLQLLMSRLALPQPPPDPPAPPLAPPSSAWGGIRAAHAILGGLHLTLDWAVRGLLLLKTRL

B1: hu10C2-hIgG4 (antibody, V domains shown)
VH: QVHLVQSGAEVKKPGSSVKVSCKAPGYTFSSYWIEWVRQAPGQGLEWIGEILPGSGNTNYNEKFKGRATFTADTSTSTAYMELSSLRSEDTAVYYCASPSSTVDYAMDYWGQGTLVTVSS
VL: EIVLTQSPGTLSLSPGERATLSCRASRSVSTSGYNYMHWYQQKPGQAPRLLIFLASNLESGIPDRFSGSGSGTDFTLTISRLEPEDFAVYYCQHSRELPYTFGQGTKLEIK
notes: also called 10C2人源化抗体
B2: hu16E12-hIgG4 (antibody, V domains shown)
VH: QVQLVQSGAEVKKPGASVKVSCKASGYTFTSYYMYWVRQAPGQGLEWIGEINPSNGGTDFNEKFKNRVTMTVDTSISTAYMELSRLRSDDTAVYYCTREEIHYGYDKGFAYWGQGTLVTVSS
VL: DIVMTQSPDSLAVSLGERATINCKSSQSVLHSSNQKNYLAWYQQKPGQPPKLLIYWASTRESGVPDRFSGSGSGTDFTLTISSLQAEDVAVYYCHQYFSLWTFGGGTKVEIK
notes: also called 16E12人源化抗体; hu16E12 Wild Type
B3: Control-3C6 (antibody, V domains shown)
VH: EVQLVQSGAEVKKPGASVKISCKASGYTFTDYNMDWVKQAPGQRLEWIGDINPHNGGPIYNQKFTGRATLTVDKSASTAYMELSSLRSEDTAVYYCARGELGHWYFDVWGQGTTVTVSS
VL: DIVLTQSPASLALSPGERATLSCRASKSVSTSGYSYIHWYQQKPGQAPRLLIYLASNLDSGVPARFSGSGSGTDFTLTISSLEEEDFATYYCQHSRDLPPTFGQGTKLEIKR
B4: hu16E12 L94H (antibody, V domains shown)
VH: B2 VH
VL: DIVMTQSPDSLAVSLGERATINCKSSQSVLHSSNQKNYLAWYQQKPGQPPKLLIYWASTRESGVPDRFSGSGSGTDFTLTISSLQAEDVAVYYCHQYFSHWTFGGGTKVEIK
B5: hu16E12 N65G (antibody, V domains shown)
VH: B2 VH with N66G
VL: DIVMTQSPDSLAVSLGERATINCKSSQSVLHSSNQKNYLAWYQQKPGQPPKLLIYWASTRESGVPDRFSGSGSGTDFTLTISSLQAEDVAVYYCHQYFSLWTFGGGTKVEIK
notes: CDR mutant of hu16E12 (IgG4); placed on VH (CDR2, probably Kabat) by inference
B6: hu16E12 N54S (antibody, V domains shown)
VH: B2 VH with N55S
VL: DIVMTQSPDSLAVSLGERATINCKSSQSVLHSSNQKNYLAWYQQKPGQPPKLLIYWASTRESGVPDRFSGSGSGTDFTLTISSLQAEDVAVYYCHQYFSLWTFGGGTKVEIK
notes: as for B5
B7: hu16E12 G55V (antibody, V domains shown)
VH: B2 VH with G56V
VL: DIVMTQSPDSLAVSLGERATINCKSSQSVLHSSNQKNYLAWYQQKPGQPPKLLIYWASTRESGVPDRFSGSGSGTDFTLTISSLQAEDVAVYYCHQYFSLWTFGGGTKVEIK
notes: as for B5
B8: hu16E12 E61Q N65G (antibody, V domains shown)
VH: B2 VH with E62Q, N66G
VL: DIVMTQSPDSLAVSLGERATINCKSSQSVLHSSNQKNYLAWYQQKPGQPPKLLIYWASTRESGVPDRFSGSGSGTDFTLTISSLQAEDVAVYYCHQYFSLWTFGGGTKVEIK
notes: as for B5
B9: hu16E12 K64Q N65G (antibody, V domains shown)
VH: B2 VH with K65Q, N66G
VL: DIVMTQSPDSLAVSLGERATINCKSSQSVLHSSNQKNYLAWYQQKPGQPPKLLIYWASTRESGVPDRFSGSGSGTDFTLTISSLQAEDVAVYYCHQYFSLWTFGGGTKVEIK
notes: CDR mutant of hu16E12 (IgG4); placed on VH (CDR2, probably Kabat numbering) by inference
B10: hu16E12 G55A (antibody, V domains shown)
VH: B2 VH with G56A
VL: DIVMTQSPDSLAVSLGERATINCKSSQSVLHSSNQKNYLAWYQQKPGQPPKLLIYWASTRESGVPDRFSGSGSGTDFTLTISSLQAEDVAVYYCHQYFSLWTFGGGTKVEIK
notes: as for B5
B11: hu16E12 N60A N65G (antibody, V domains shown)
VH: B2 VH with N61A, N66G
VL: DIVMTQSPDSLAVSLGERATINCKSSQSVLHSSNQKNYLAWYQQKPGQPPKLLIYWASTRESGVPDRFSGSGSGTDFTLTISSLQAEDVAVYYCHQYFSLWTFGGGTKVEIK
notes: as for B5
B12: hu16E12 N54Q (antibody, V domains shown)
VH: B2 VH with N55Q
VL: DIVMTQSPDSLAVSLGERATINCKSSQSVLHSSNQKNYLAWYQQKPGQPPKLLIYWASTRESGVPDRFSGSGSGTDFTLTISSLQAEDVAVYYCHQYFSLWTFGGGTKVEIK
notes: as for B5
B13: 1D12 (antibody, V domains shown)
VH: EVQLQQFGAELVKPGAAVKISCKASGYTFTDYNMDWVRQSHGKSLEWIGEINPNYDSTRYNQKFKGKATLTVDKSSSTAYMELRSLTSEDTAVYYCARSDYYAMDYWGQGTSVTVSS
VL: SIVMTQTPSFLLVSAGDRVTITCKASQSVSNDVAWYQQKPGQSPKLLIYYASNRFTGVPDRFTGSGFGTDFTFTISTVQTGDLAVYFCRQDYISPYTFGGGTKLEIK
notes: Mouse hybridoma antibody purified on Protein A
B14: 14E1 (antibody, V domains shown)
VH: EVQLQQSGPVLVKPGASVKMSCKASGYTFTDYYMNWVKQSHGKSLEWIGVFNPYNGGTVYNQKFKGKATLTVDKSSSTAYMELSSLTSEDSAVYYCAREDYGSYYVVFDYWGQGTTLTVSS
VL: QIVLSQSPAILSASPGEKVTMTCRASSSVSYMHWYQQKPGSSPKPWIYATSNLASGVPARFSGSGSGTSYSLTISRVEAEDAATYYCQHWSSNPLTFGAGTKLELK
notes: as for B13
B15: 6B9 (antibody, V domains shown)
VH: EVQLVESGGGSVKPGGSLKLSCAASGFTFSNYAMSWVRQSPEKRLEWVAEISNGGSYTYYPDTVTGRFTISRDNAKNTLYLEMSSLRSEDTAMYYCVRHYDGYYGGILDFAMDYWGQGTSVTVSS
VL: DIQMTQSPSSLSASLGGKVTITCKASQDINKCIAWYQHKPGKGPRLLIHYTSTLQPGIPSRFSGSGSGRDYSFTISNLEPEDIATYYCLQYDYLHTFGGGTKLEIK
notes: as for B13
B16: 10C2 (antibody, V domains shown)
VH: QVHLQQSGTELMKPGASVKISCKAPGYTFSSYWIEWVKQRPGHGLEWIGEILPGSGNTNYNEKFKGKATFTADTSSNTAYMQLSSLTSEDSAVYYCASPSSTVDYAMDYWGQGTSVTVSS
VL: DIVLTQSPASLGVSLGQRATISCRASRSVSTSGYNYMHWYQQKPGQPPKLLIFLASNLESGVPARFSGSGSGTDFTLNIHPVEEEDAATYHCQHSRELPYTFGGGTKLEIK
notes: Mouse hybridoma antibody purified on Protein A; also called 鼠源10C2
B17: 26A6 (antibody, V domains shown)
VH: QIQLVQSGPELKKPGETVKISCKASGYTFTNYGMNWVKQAPGKGLKWMGWINTNTGETTYAEEFKGRFAFSLEASVSTAHLQINNLKNEDTATYFCAKEDFYGMDYWGQGSSVTVSS
VL: NIVMTQTPKFLLVSAGDRVTMTCKASQSVSNDVVWYQQKPGQSPKLLIYYASNRYTGVPDRFIGSGYGTEFTFTISTVQAEDLAVYFCQQDYSFPYTFGGGTKLEIK
notes: as for B13
B18: 14F6 (antibody, V domains shown)
VH: EVKLEESGGGLVQPGGSMKLSCVASGFTFSKYWMNWVRQSPEKGLEWVAEIRLKSDNYATQYAESVKGRFTMSRDDSKSSVYLQMKNLRAEDSGIYYCTKEGYDGYAMDYWGQGTSVTVSS
VL: B17 VL with N1R, M21I, S28N, V29I, S30N, I63T, E70D, S93I, F94S, Y96W
notes: as for B13
B19: 16E12 (antibody, V domains shown)
VH: QVQLQQSGAELVKPGASVKLSCKASGYTFTSYYMYWVKQRPGQGLEWIGEINPSNGGTDFNEKFKNKATLTVDKSSSTAYMQLSSLTSEDSAVYYCTREEIHYGYDKGFAYWGQGTLVTVSA
VL: NIMMTQSPSSLAVSAGEKVTMSCKSSQSVLHSSNQKNYLAWYQQKPGQSPKLLIYWASTRESGVPDRFTGSGSGTDFTLTISSIQAEDLAVYYCHQYFSLWTFGGGTKLEIK
notes: Mouse hybridoma antibody purified on Protein A; also called 鼠源16E12
B20: 18B6 (antibody, V domains shown)
VH: B19 VH with S31N, M34I, V37M, D59N, N66S, Y95F, T97S
VL: B19 VL with S10Y, H31N, T59I, I84V, Y93F, L100S, K108R
notes: as for B13
B21: 16F3 (antibody, V domains shown)
VH: QVQLQQSGAELVRPGVSVKISCKGSGDTFTDYAMHWVKQSHAKSLEWIGVISTYYGDVSYNQKFKGKATMTVDKSSSTAYMELVRLTSEDSAIYYCARGYYDYAWFAYWGQGTLVTVSA
VL: QIVLTQSPAIMSASPGEKVTMTCSASSSLNYMHWYQQKSGTSPKRWIYDTSKLASGVPARFSGSGSGTSYSLTISSMEAEDAATYYCQQWSSNPLTFGAGTKLELK
notes: as for B13
B22: 4A2 (antibody, V domains shown)
VH: QVQLQQSGGELVRPGVSVKISCKGSGYKITDYAMHWVKQSHAESLEWIGVISSYYGDTSYNQKFKGKATMTVDISSSTAYMEIARLTSEDSAIYYCAIGLWDVGYFDYWGQGTTLTVSS
VL: B21 VL with L29V, N30S, H33Q, S91V, N93K, P94A, L95V, A99S, L105I
notes: as for B13

biological target: T1, 重组人IL-11 (recombinant human …); assay: ELISA, IL-11 coated on plate

| Binder | EC50 [µg/mL] |
| --- | --- |
| B1 | 0.0659 |
| B2 | 0.0624 |
| B3 | 22.5 |

biological target: T1, 重组人IL-11 (recombinant human …); assay: FACS, blocking of IL-11-biotin binding to 293T-IL-11Rα/gp130 cells

| Binder | IC50 [µg/mL] |
| --- | --- |
| B1 | 0.0811 |
| B2 | 0.0679 |
| B3 | 4.19 |

biological target: T1, 重组人IL-11 (recombinant human …); assay: SPR (Biacore), antibody captured on anti-human IgG CM5 chip, IL-11 as analyte

| Binder | Kd [nM] | koff [s⁻¹] | kon [M⁻¹ s⁻¹] |
| --- | --- | --- | --- |
| B1 | 0.0149 | 2.2e-05 | 1.47e+06 |
| B2 | 0.0158 | 4.66e-05 | 2.96e+06 |
| B4 | 0.00187 | 3.91e-06 | 2.09e+06 |
| B5 | 0.0189 | 5.25e-05 | 2.78e+06 |
| B6 | 0.0245 | 7e-05 | 2.86e+06 |
| B7 | 0.00387 | 9.32e-06 | 2.41e+06 |
| B8 | 0.0363 | 8.54e-05 | 2.35e+06 |
| B9 | 0.0157 | 5.76e-05 | 3.68e+06 |
| B10 | 0.012 | 3.56e-05 | 2.96e+06 |
| B11 | 0.0268 | 7.51e-05 | 2.81e+06 |
| B12 | 0.0363 | 0.000101 | 2.78e+06 |

biological target: T1, 重组人IL-11 (recombinant human …); assay: cell-based or functional assay

| Binder | IC50, STAT3 luciferase reporter in DLD1-IL-11R-pSTAT3-Luc cells [ng/mL] |
| --- | --- |
| B1 | 4.86 |
| B2 | 1.16 |
| B3 | 178 |

biological target: T1, 重组人IL-11 (recombinant human …); assay: ELISA, IL-11 coated on plate; remark: another data set of the same source

| Binder | binding result |
| --- | --- |
| B13 | binds |
| B14 | binds |
| B15 | binds |
| B16 | binds |
| B17 | binds |
| B18 | binds |
| B19 | binds |
| B20 | binds |
| B21 | binds |
| B22 | binds |
